Measured values as given in patent US20110166032A1, “Design and Use of Sortilin Specific Molecular Imaging Ligands” (H. LUNDBECK A/S, priority 2008, published 2011).
Residue numbers refer to the chain shown, from its start. No end group written: not given here.

Key:
immobilized sSortilin = molecular target: T1, immobilized sSortilin (Homo sapiens, UniProt Q99523); assay: Surface plasmon resonance: inhibition of ligand binding to immobilized sSortilin by Neurotensin derived peptides; settings: for inhibition of Sortilin's binding of its own propeptide (Sort-pro): GST-Sort-pro binding to immobilized sSortilin, FIG. 3A+B
T1 construct: His6 (C); made in house; host or cells: CHO-K1
T1 sequence (Q99523 78-755): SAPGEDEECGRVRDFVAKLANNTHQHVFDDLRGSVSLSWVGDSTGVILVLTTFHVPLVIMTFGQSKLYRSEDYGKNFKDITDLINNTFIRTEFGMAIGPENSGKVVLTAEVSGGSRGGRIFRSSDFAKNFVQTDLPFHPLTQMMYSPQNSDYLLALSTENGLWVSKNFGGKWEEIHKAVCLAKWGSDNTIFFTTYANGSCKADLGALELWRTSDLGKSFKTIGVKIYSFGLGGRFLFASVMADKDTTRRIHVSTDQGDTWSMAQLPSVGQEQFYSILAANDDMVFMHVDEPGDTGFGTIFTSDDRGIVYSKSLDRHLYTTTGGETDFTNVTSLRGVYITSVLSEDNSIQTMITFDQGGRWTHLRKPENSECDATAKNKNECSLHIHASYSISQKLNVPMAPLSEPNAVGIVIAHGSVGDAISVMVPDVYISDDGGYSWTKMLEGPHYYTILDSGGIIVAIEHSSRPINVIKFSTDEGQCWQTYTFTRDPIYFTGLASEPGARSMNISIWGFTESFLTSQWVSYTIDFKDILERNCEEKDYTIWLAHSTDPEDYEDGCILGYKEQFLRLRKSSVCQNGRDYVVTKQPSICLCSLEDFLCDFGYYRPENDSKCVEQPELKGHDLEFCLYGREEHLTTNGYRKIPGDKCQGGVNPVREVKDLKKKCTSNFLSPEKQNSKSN
Description: (§1) Surface plasmon resonance (SPR) measurements were performed on a BIAcore 2000 instrument (Biacore Sweden) equipped with CM5 sensor chips maintained at 20° C. A continuous flow of HBS buffer (10 mM HEPES pH 7.4, 3.4 mM EDTA, 150 mM NaCl, 0.005% surfactant P20) passing over the sensor surface was maintained at 5 μl/min. […] A sortilin solution (320 μl, 5 μg/ml in 10 mM sodium acetate pH 4.0) was then injected over flow cells 1 and 2 at a flow rate of 15 μl/min. Remaining binding sites in all three flow cells were blocked by injection (5 μl/min) of 70 μl of 1 M ethanolamine pH 8.5. […] Screening of the samples was performed by injecting aliquots of 50 μl, at concentrations of 0.1-8 μM, through all flow cells with a flow rate of 5 μl/min. Unless otherwise stated, the samples were dissolved in 10 mM HEPES pH 7.4, 150 mM NaCl, 1.5 mM CaCl2, 1 mM EGTA, 0.005% surfactant P20. Sample buffer was also used as running buffer. The BIAcore response is expressed in relative response units (RU), i.e. the difference in response between the immobilized protein flow cell and the corresponding control flow cell (activated and blocked but without protein). Regeneration of the sensor chip after each cycle of analysis was performed by injecting 20 μl of 10 mM glycine/HCl pH 4.0, 500 mM NaCl, 20 mM EDTA and 0.005% surfactant P20. For calciumfree conditions, HBS containing 20 mM EDTA was used as sample as well as running buffer.

sSortilin S316E mutant [1] = molecular target: T2, sSortilin S316E mutant (Homo sapiens, UniProt Q99523, S316E); assay: Surface plasmon resonance: ligand binding to purified S316E mutant sSortilin compared with wt sSortilin; settings: compared with wtSortilin, SPR
T2 construct: His6 (C); made in house; host or cells: CHO cells
T2 sequence (Q99523 78-755 S316E): T1 sequence (Q99523 78-755) with S239E
Description: as §1

sSortilin S316E mutant [2] = molecular target: T3, sSortilin S316E mutant (human, UniProt Q99523 78-755); assay: SPR, immobilised S316E sSortilin
T3 construct: those of wt sSortilin are used
T3 sequence: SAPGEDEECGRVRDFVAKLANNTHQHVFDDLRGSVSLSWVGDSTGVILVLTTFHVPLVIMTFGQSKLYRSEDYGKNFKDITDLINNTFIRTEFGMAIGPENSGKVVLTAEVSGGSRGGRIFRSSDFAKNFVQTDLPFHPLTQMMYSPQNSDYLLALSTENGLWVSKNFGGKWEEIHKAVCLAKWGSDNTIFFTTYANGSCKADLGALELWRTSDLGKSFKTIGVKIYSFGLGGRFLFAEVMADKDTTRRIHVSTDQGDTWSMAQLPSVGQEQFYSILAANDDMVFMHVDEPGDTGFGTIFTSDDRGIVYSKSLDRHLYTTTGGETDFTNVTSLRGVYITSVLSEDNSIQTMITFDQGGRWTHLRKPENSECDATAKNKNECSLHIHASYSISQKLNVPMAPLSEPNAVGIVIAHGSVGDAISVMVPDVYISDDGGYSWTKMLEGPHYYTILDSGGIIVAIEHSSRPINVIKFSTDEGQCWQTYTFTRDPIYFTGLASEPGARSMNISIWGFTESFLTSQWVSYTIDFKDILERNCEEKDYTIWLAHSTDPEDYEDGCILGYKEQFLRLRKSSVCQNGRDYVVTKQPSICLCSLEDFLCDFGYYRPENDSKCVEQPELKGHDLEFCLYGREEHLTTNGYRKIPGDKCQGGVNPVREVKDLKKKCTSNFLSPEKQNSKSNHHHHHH
Description: as §1, with “For calciumfree conditions, HBS containing 20 mM EDTA was used as sample as well as running buffer.” left out

[3] = molecular target: T4, Soluble Sortilin (sSortilin), luminal domain of human Sortilin fused C-terminally to His6 (human, UniProt Q99523 78-755); assay: SPR (BIAcore 3000), immobilised sSortilin
T4 construct: Expressed in CHO-K1 cells; 1; also called wtSortilin; wt sSortilin
T4 sequence: T3 sequence with E239S
Description: All measurements were performed on a BIAcore 3000 instrument (Biacore Sweden) maintained at 20° C. A continuous flow of buffer F (10 mM HEPES pH=7.4, 150 mM (NH₄)₂SO₄, 1.5 mM CaCl₂, 1.5 mM EGTA and 0.005% Tween-20) was passed over the CM5 chip sensor surface at 5 μl/min.

Molecule: Arg8-Arg-Pro-Tyr-Ile-Leu13-NH2 [reference compound]
- inhibition of Sortilin's binding of its own propeptide (Sort-pro) (immobilized sSortilin; SPR): fails to inhibit

Molecule: Arg9-Pro-Tyr-Ile-Leu13 [reference compound]
- inhibition of Sortilin's binding of its own propeptide (Sort-pro) (immobilized sSortilin; SPR): equally effective

Molecule: Tyr-Ile-Leu [Tyr11-Ile-Leu13]
- affinity for Sortilin (summary statement) (immobilized sSortilin): high affinity
- inhibition of Sortilin's binding of its own propeptide (Sort-pro) (immobilized sSortilin; SPR): full inhibition
- inhibition of binding of the prodomain of NGF to sSortilin (immobilized sSortilin; GST-tagged propeptide of NGF, SPR, FIG. 3C): hampers binding
- inhibition of binding of RAP to sSortilin (immobilized sSortilin; SPR, FIG. 3D): hampers binding

Molecule: Sort-pro: Sortilin's own propeptide (amino acid residues 34-77 of SEQ ID NO. 1), used fused to GST (QDRLDAPPPPAAPLPRWSGPIGVSWGLRAAAAGGAFPRGGRWRR; also: fused to GST)
- binding to S316E mutant sSortilin (sSortilin S316E mutant [1]): no binding

B1: BDNF: Mature BDNF (SEQ ID NO. 7) purchased from R&D Systems (protein, listed as Homo sapiens)
chain: MTILFLTMVISYFGCMKAAPMKEANIRGQGGLAYPGVRTHGTLESVNGPKAGSGLTSLADTFEHVIEELLDEDQKVRPNEENNKDADLYTSRVMLSSQVPLEPPLLFLLEEYKNYLDAANMSMRVRRHSDPARRGELSVCDSISEWVTAADKKTAVDMSGGTVTVLEKVPVSKGQLKQYFYETKCNPMGYTKEGCRGIDKRHWNSQCRTTQSYVRALTMDSKKRIGWRFIRIDTSCVCTLTIKRGR
modifications: SIGNAL (1)..(18) Signal peptide of BDNF
- binding to S316E mutant sSortilin (sSortilin S316E mutant [1]): did bind

B2: GST-tagged Sortilin propeptide (GST-Sort-pro) (other)
chain: QDRLDAPPPPAAPLPRWSGPIGVSWGLRAAAAGGAFPRGGRWRR
modifications: also: fused to GST, order and linker not given here
notes: the construct is 'as previously described (5)'; also called Sortilin propeptide fused to GST; not shown: glutathione S-transferase (GST) tag
- binding result (sSortilin S316E mutant [2]): no binding

B3: propeptide of Nerve Growth Factor (NGFpro), E. coli expressed, His6 tag removed by TEV (ligand)
chain: EPHSESNVPAGHTIPQVHWTKLQHSLDTALRRARSAPAAAIAARVAGQTRNITVDPRLFKKRRLRSPRVLFSTQPPREAADTQDLDFEVGGAAPFNRTHRSKR
notes: also called NGF propeptide; pro-domain of Nerve Growth Factor
- Kd [3]: ~10 nM

B4: NGFpro: propeptide of Nerve Growth Factor, amino acid residues 19 to 121 of SEQ ID NO 6 (protein)
chain: B3 chain
modifications: left off: a dimerising Fc or GST
- binding to S316E mutant sSortilin (sSortilin S316E mutant [1]): did bind
